Experimental data: doi:10.1101/2025.11.04.686334 (bioRxiv, 2025)

Biological target: HA head domain of A/Hong Kong/1/1968 (H3N2) (Influenza A virus A/Hong Kong/1/1968 …, strain)
Assay: ELISA
Conditions: both partners purified

B1: FluA-20 mAb (antibody, V domains shown)
VH: QVQLEESGPGLVKPSETLSLTCSVSGVSVTSDIYYWTWIRQPPGKGLEWIGYIFYNGDTNYNPSLKSRVTMSIDTSKNEFSLRLTSVTAADTAVYFCARGTEDLGYCSSGSCPNHWGQGTLVTVSS
VL: DIVMTQSPSSLSASIGDRVTITCRPSQNIRSFLNWFQHKPGKAPKLLIYAASNLQSGVPSRFSGSGSGTEFTLTIRSLQPEDFATYYCQQSYNTPPTFGQGTKVEIK
  binding result: binds
